From a protein production outcome set (Wang et al. 2014)

Assay: label from the status in PepcDB records

Sequence	protein production
MSLHASAIESIETIIVDLPTIRPHKLAMHTMQNQTLVLIRLRCADGIEGLGESTTIGGLAYGNESPDSIKTNIDRFVAPLLIGQDASNINAAMLRLEQSIRGNTFAKSGIESALLDAQGKRLGLPVSELLGGRVRDALPVAWTLASGDTAKDIAEAQKMLDLRRHRIFKLKIGAGEVDRDLAHVIAIKKALGDSASVRVDVNQAWDEAVALRACRILGGNGIDLIEQPISRNNRAGMVRLNASSPAPIMADESIECVEDAFNLAREGAASVFALKIAKNGGPRATLRTAAIAEAAGIGLYGGTMLEGGIGTLASAHAFLTLNKLSWDTELFGPLLLTEDILAEPPVYRDFHLHVSKAPGLGLSLDEERLAFFRRDKTTPVLHHTEGHHHHHH	not failed
MSLHFQILLWLSILFIIAGTILLVTMLKTKKEERKESYLGFTVIFLIFGFAILIYTFIFGIL	failed
MSLIDLYDLRMPQRTGTYVLHEENLAIIETGPSPSVPHLLAGLKALHIDPADIRYIIVTHIHLDHAGGVGVLLEHCPNATVIVHPKGKRHLADPSRLIAGAKAVYGEQFDALFDPIVPVPEERLLVKEDGETLVLSAERTLTFYDTPGHANHHFSIYDSYSGGVFTGDTIGVFYPQLQEAGLAFCLPSTSPNQFNPEAMKQSAERLEKLNPTRIYFGHFGALDQPEEAFRQLRFWLPKFVAAGKEVIARHPEAPAAEQAKAVTKLLHNDITAFLNECSIPASSPVYKVIELDLQVCAMGIIDYWRKQRLEHHHHHH	failed
MSLIPKFREFDRERHRTDYQKGMSYAEQQDFDMGFTIWFDHIEDLDLIEKDGTINRIVMMSTGLKDKNVKEIYESDIVRNLYGELYVVEWLDGSFVLTEFYNGGYDHYIIDSSTEYEVLGNIYENPELLEDDNHASNEGHHHHHH	not failed
MSLIYAQILAGGKGTRMGNVSMPKQFLPLNGKPIIVHTVEKFILNTRFDKILISSPKEWMNHAEDNIKKYISDDRIVVIEGGEDRNETIMNGIRFVEKTYGLTDDDIIVTHDAVRPFLTHRIIEENIDAALETGAVDTVIEALDTIVESSNHEVITDIPVRDHMYQGQTPQSFNMKKVFNHYQNLTPEKKQILTDACKICLLAGDDVKLVKGEIFNIKITTPYDLKVANAIIQERIANEGHHHHHH	not failed
MSLKAIGFEQPFKLSDGNLFKTFNLDIPEPKVHEILVKIQSISVNPVDTKQRLMDVSKAPRVLGFDAIGVVESVGNEVTMFNQGDIVYYSGSPDQNGSNAEYQLINERLVAKAPKNISAEQAVSLPLTGITAYETLFDVFGISRNRNENEGKTLLIINGAGGVGSIATQIAKAYGLRVITTASRNETIEWTKKMGADIVLNHKESLLNQFKTQGIELVDYVFCTFNTDMYYDDMIQLVKPRGHIATIVAFENDQDLNALKPKSLSFSHEFMFARPLNQTDDMIKHHEYLEDITNKVEQNIYQPTTTKVIEGLTTENIYQAHQILESNTMIGKLVINLNEGHHHHHH	not failed
MSLKARLALFFALSIGLALFFQGALSYVAFKGLLEADLDRSLLFYARALAEGRPSPRGEFAFRLAQGGAETKSPNFPDLPPLAPGRYWKEGWRVWVLEAPGGTLTVARYEPEALLALSRFRLVLFASGAALTLAFALLAGHLAGVALRPLSRLTEVARRVADSQDLSHRVPPEGGGELKTLAEAFNHMLERLEAFLEREKRFTRDAAHELRTPVAAALAQLEAAEGGYLSEGEALQATKEELLRMKRLVEALLVLAREGRVTPVPLDLAALAREEARAFGVPYRGPETLPYEGDPLLLAQALRNLLRNAFLHGEGKGVEVRLSQEGEDLVLEVKDEGPGMPEEALKEAGRPFFRASPKPGEGLGLSVAKKVAEAHGGALVLVPRKPTGLTARLLLPANPRLTGTP	failed
MSLKDMIDSIEQFAQTQADFPVYDCLGERRTYGQLKRDSDSIAAFIDSLALLAKSPVLVFGAQTYDMLATFVALTKSGHAYIPVDVHSAPERILAIIEIAKPSLIIAIEEFPLTIEGISLVSLSEIESAKLAEMPYERTHSVKGDDNYYIIFTSGTTGQPKGVQISHDNLLSFTNWMIEDAAFDVPKQPQMLAQPPYSFDLSVMYWAPTLALGGTLFALPKELVADFKQLFTTIAQLPVGIWTSTPSFADMAMLSDDFCQAKMPALTHFYFDGEELTVSTARKLFERFPSAKIINAYGPTEATVALSAIEITREMVDNYTRLPIGYPKPDSPTYIIDEDGKELSSGEQGEIIVTGPAVSKGYLNNPEKTAEAFFTFKGQPAYHTGDIGSLTEDNILLYGGRLDFQIKYAGYRIELEDVSQQLNQSPMVASAVAVPRYNKEHKVQNLLAYIVVKDGVKERFDRELELTKAIKASVKDHMMSYMMPSKFLYRDSLPLTPNGKIDIKTLINEVNNREGHHHHHH	not failed
MSLKIIAPTDKTITPSGTWSIGARAGDFVFIGGMHGTDRVTGKMVDGDEARIRRMFDNMLAAAEAAGATKADAVRLTVFVTDVAKYRPVVNKVQKDIWGDGPYPPRTVLQVPALDQGDIAEIDGTFYAPAEGHHHHHH	not failed
MSLKKYQLVIVGYGGMGSYHVTLASAADNLEVHGVFDILAEKREAAAQKGLKIYESYEAVLADEKVDAVLIATPNDSHKELAISALEAGKHVVCEKPVTMTSEDLLAIMDVAKRVNKHFMAHQNRRWDEDFLIIKEMFEQKTIGEMFHLESRVHGANGIPGDWRHLKAHGGGMVLDWGVHLLDQLLFLVDSNVKSVSANLSFALGDEVDDGFVTFITFENGITAQIEVGTTNFIKLPRWYVKGTEGTGIIHDWDLSGEIVKPTALAKTSEPTPIKAGQGLTKTMAPPSEEATNTLSLPAPAKLAPSFYNNFVDVLNNTSEPIVQNEEVYQVLKLIEAIFEAAETNRTVHSIEGHHHHHH	not failed
MSLKNKLQVKIPGKLYVAGEYAVVESGHTAILTAVNRYITLTLEDSERNELWIPHYENPVSWPIGGELKPDGEHWTFTAEAINIATTFLKSEGIELTPVKMVIETELIDQSGAKYGLGSSAAATVAVINALMTKFYPEISMLKKFKLAALSHLVVQGNGSCGDIASCMYGGWIAYTTFDQEWVKHRLAYKSLEWFMKEPWPMLQIETLEEPVPTFSVGWTGTPVSTGKLVSQIHAFKQEDSKNYQHFLTRNNEIMKQIIQAFHTKDEELLYSSIKENRRILQELGTKAGVNIETSLLKELADSAENMGGAGKSSGSGGGDCGIAFSKTKELAEKLVNEWEKLGIKHLPFHTGRVQITEGHHHHHH	not failed
MSLKTNFVKYERKDNKDLCEITLENDAGMAVKVLNYGATLEKVLLDGENMILSLNSPEDYSKERNFLGGTVGRIAGRVRAGQWKHGNEIHQLPLNDGDNHIHGGIGTDMHVWDFRPSCDSEHARVDLTLFDPDGNNDYPGNLKLHARYELDNENNLHYLLEAVSDKLTIFNPVNHTYFNLGERAEDLNLQMNADYYLPVDEAGLPDRGMAEVAGTAFDFRKTKRIGDALNSDDSQIKLRNGLDHPFILNGNNPAALLSSNKHRLIVKTNAPALVLYAGNHFNHTGIVNNIGQYDGITFEAQCPPAEGNDLGQITLLPFEKFKRTVDWKFEEGHHHHHH	not failed
MSLKTTTSSTPSDRITWVRISSCYLPLATPISDAKVLTGRQKPMTEIAILFAEIETAGGHQGLGFSYSKRAGGPGQFAHAREIAPALIGEDPSDIAKLWDKLCWAGASAGRSGLSTQAIGAFDVALWDLKAKRAGLSLAKLLGSYRDSVRCYNTSGGFLHTPIDQLMVNASASIERGIGGIKLKVGQPDGALDIARVTAVRKHLGDAVPLMVDANQQWDRPTAQRMCRIFEPFNLVWIEEPLDAYDHEGHAALALQFDTPIATGEMLTSAAEHGDLIRHRAADYLMPDAPRVGGITPFLKIASLAEHAGLMLAPHFAMELHVHLAAAYPREPWVEHFEWLEPLFNERIEIRDGRMLVPTRPGLGLTLSGQVKAWTREEAQVGTRPEGHHHHHH	not failed
MSLLKIFYVILGFISLGLGLIGIILPILPTTPFLLLTAFCFVKGSDKFDKWFKGTKIYKNHLESFEKNRAMTLKTKLTILLTADIMLLFPLILSKSIHLKIFIVILMMFKFYYFIFRIKTVKAGDVVEQNR	failed
MSLLNIKFTDNAVDYLKRREILDKILILITDDGGGKYSIQGGSCSMGAHFSIIWLDKVDPDYPVKIANEQNVKIYTSDFDKTMLGPNMVMDYNAGSLSLSSDEGLLDGSVDIGNGAALLKANKNVQMGINRQCEGHHHHHH	not failed
MSLLQQADRLHRQLLRTGPAQAPCWEPPVDMIETESAVLIYVALPGVAAGDVAVRFDPDGISISGVRPLPALRNARIHGLEIPYGRFQRRIRLPLHALEPEAPTLADGCLTLTLKKLREAPLEHHHHHH	failed
MSLNDNNTILGFDVNLICDFFLNTERQGPGSPEVTLKALSFIDNLTNKSLIADLGCGTGGQTMILAQHVPGKITGIDFFPGFIERFNKNAEKLNLQNRVKGIVGSMDDLSFEKDSLDLIWSEGAIYNIGFERGLKEWRNYLKPGGYLAVSESVWFTDQRPAEIHDFWMSAYTEIDTVPNKVAQIQKAGYIPVATFILPENCWIEHYFAPQAKAEEIFRRKHAGSRIVEELITSNHHEAELYSKYKAYYGYAFFICKKGFSLREGHHHHHH	not failed
MSLPHLSSGEVASVLPLGKQLTQTPSAALFKEHRLEVMRMVLPAGKQVGSHSVAGPSTIQCLEGEVEIGVDGAQRRLHQGDLLYLGAGAAHDVNAITNTSLLVTVVLVDRGGS	not failed
MSLPQSKVLTSFGTANRTPRAAETHPLTWRLRDDGQPVWLEEYQTKQGYDAVRKALGQMSPDEIVSTVKDAGLKGRGGAGFPTGVKWGLMPKDESMNIRYLLCNADEMEPNTWKDRLLMEQLPHLLIEGMIISAKALKAYRGYIFLRGEYVDAAINLRRAVEEAKAAGLLGKNILGSGFDFELFVHTGAGRYICGEETALINSLEGRRANPRAKPPFPAVSGVWGKPTCVNNVETLCNVPAIIGNGVAWYHTLALPGSEDHGTKLMGFSGKVNNPGVWELPFGITARELFEGYAGGMRSGYRLKAWQPGGAGTGFLLPEHLDAQMYTAGIGKVGTRMGTGLAMAVDDSISMVSLLRNMEEFFARESCGWCTPCRDGLPWSVKLLRSLERGEGQEGDLATLEQLCNFLGPGKTFCAHAPGAVEPLASAIKYFRSEFEAGIKGSGDNRKSIKGIQPNLLGERWLEHHHHHH	not failed
MSLQFNPIGLFLVALILLGVLGNNNSITISATLLLLMQQTALNKYIPMLEKYGLTIGIIILTIGVLSPIVSGKINLPNLSEILSWKMALAISIGIFVAWLGGRGINLMATQPLIITGLLIGTIIGIAFFGGIPVGPLIAAGIMSLLVGKL	failed
MSLQLINLNSDLKRLRDEGYFIQVKNGFLIMRDVPYVNSNRHVCRGTIISSLSLAGDRTRIPDTHVVHFDGDMPCNAEGEALNAVVLQSSIFDLGRGITAKHMFSSKPKSGYTDYYHKMTTYASILSGHAEVLNSGISPKVFSTPEDEEDSVFNYTETASGRVGIGALSDLLTEE	failed
MSLQLRLALNQIDSTVGDIAGNAEAILRWTRHSAEQGAHLVAFPEMALTGYPVEDLALRSSFVEASRTALRELAARLAEEGFGELPVLVGYLDRSESAQPKYGQPAGAPRNAAAVLHRGRVALTFAKHHLPNYGVFDEFRYFVPGDTMPIVRLHGVDIALAICEDLWQDGGRVPAARSAGAGLLLSVNASPYERDKDDTRLELVRKRAQEAGCTTAYLAMIGGQDELVFDGDSIVVDRDGEVVARAPQFSEGCVVLDLDLPAAEAEPPTGVVDDGLRIDRLVISEEPLPAYEAELAGGYADRLDADEEVYSALVVGLRAYVAKNGFRSVLIGLSGGIDSALVAAIACDALGAQNVYGVSMPSKYSSDHSKGDAAELARRTGLNFRTVSIEPMFDAYMASLGLTGLAEENLQSRLRGTTLMAISNQEGHIVLAPGNKSELAVGYSTLYGDSVGAYGPIKDVYKTSIFRLAEWRNRAAAERGQTPPIPEASITKPPSAELRPGQVDTDSLPDYPVLDAILELYVDRDTGADAIVAAGYDRELVVKTLRMVDTAEYKRRQYPPGTKISAKGFGKDRRLPITNRWREGHHHHHH	not failed
